Source: publication PMC4605295, “The N-terminus of RPA large subunit and its spatial position are important for the 5′->3′ resection of DNA double-strand breaks” (Nucleic Acids Research, 2015)

Target: T1, GST fusion of Xenopus RPA1 (RPA large subunit) (Xenopus, UniProt Q01588 1-609)
T1 construct: Xenopus RPA1, large subunit of replication protein A; the gene for the subunit was subcloned into a pGEX vector; In-frame GST fusion from a pGEX vector; also called the large subunit; source: E. coli BL21(DE3), purified (glutathione Sepharose)
Assay: pull-down; GST fusions of RPA subunits or RPA1 regions incubated with His-tagged WRN 1-465, isolated on glutathione Sepharose beads, 4°C 1 h; washed with buffer A + 150 mM NaCl + 0.005% NP-40; Western blot for WRN
Conditions: both partners purified

T1 sequence (Q01588 whole entry, the tested form may be a part): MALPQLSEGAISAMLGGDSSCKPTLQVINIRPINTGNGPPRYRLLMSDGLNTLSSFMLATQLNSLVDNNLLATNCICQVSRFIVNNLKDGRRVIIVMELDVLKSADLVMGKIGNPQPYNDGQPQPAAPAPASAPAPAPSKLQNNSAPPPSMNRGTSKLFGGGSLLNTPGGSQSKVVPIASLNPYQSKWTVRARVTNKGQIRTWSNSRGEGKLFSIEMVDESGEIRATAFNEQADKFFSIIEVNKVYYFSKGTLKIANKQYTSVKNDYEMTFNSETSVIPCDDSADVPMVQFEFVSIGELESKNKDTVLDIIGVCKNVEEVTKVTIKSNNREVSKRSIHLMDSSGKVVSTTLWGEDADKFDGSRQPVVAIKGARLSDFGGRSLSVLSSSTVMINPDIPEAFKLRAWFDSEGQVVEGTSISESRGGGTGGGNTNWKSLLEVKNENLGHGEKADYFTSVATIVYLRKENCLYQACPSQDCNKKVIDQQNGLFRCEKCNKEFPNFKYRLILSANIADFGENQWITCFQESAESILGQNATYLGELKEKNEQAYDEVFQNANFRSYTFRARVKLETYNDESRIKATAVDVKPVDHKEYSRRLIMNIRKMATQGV

binding result: binds
B1: His-tagged Xenopus WRN 1-465 (domain or fragment, UniProt O93530 1-465, looked up)
chain: MTSLQRKLPEWMSVKQQEDRIDDAKKSFCKKNILEDNLPFMKFNGSIVYSYESNDCSLLSEDIRSSLLEEDVLGFDIEWPPVYTKGKTGKVALIQVCVSEKKCYLFHISPMAGFPKGLKRLLEDESVRKVGVGIEGDQWKLMSDYELKLKGFIELSEMANQKLRCKEKWTFNGLIKHLFKEQLYKRKSYRCSNWDIFLLTEDQKLYAATDAYAGLLIYKKLEGMDAHESDSFRVGREGVADCKGVKRQLTDLSKGLMDLVNQVPNSFGCYTEAVRAVDILEDLSEKLEELRNIMKEASKAEGNGLHFQNSEDCSKKDKSILHVACKESLAEHKMDCKNADSQNNKDIDSCQNENRDEDFFMTLGISEEELYMMEREDDKKQTNPDYKLNKDSCDTNEEKDMSYVIESDEDFDSEIIKSLEDLDNSTEEALGTGVPQAGLIPAKSVDTVADEEEDEGIEEEDDDDD
